Measured values from PMC101403.

Key:
Experiment in all cases: purified protein
Settings in all cases: Mg2+ ([…] MgCl2)
[1] = substrate: CC(C)(COP(=O)(O)OP(=O)(O)OC[C@H]1O[C@@H](n2cnc3c(N)ncnc32)[C@H](O)[C@@H]1OP(=O)(O)O)[C@@H](O)C(=O)NCCC(=O)NCCS
[2] = substrate: CC(O)(CC(=O)O)CC(=O)SCCNC(=O)CCNC(=O)[C@H](O)C(C)(C)COP(=O)(O)OP(=O)(O)OC[C@H]1O[C@@H](n2cnc3c(N)ncnc32)[C@H](O)[C@@H]1OP(=O)(O)O
[3] = substrate: CC(C)(COP(=O)(O)OP(=O)(O)OC[C@H]1O[C@@H](n2cnc3c(N)ncnc32)[C@H](O)[C@@H]1OP(=O)(O)O)[C@@H](O)C(=O)NCCC(=O)NCCSC(=O)CCC(=O)O
[4] = substrate: CC(=O)SCCNC(=O)CCNC(=O)[C@H](O)C(C)(C)COP(=O)(O)OP(=O)(O)OC[C@H]1O[C@@H](n2cnc3c(N)ncnc32)[C@H](O)[C@@H]1OP(=O)(O)O

B1: Y87G2A.14 Nudix hydrolase (coenzyme A diphosphatase) (Caenorhabditis elegans) (protein)
chain: MKCVVSRADDLKRMLDLSDVPTKSQGEQDAGVLILLHDDGSEKLKVLLCVRSRQLRRHPGEVCFPGGMMDDEDGQNVRRTAIREAYEEVGVNENDDYLVLGNLPAFRARFGVLIHPTVALLRRPPTFVLSIGEVESIFWIPLSQFLEDTHHSTFLIDEFYMVHVFQFDEYPTTYGVTALMCIVVAIGLLGKLPNFNLMGNLTISDMLDKHLDSIEIIRHVYEFASRKFEPKSKI
- Km [1]: 220 µM
- kcat [1]: 13.8 s⁻¹
- kcat/Km [1]: 64000 M⁻¹ s⁻¹
- Km [2]: 200 µM
- kcat [2]: 10.5 s⁻¹
- kcat/Km [2]: 54000 M⁻¹ s⁻¹
- Km [3]: 240 µM
- kcat [3]: 12.7 s⁻¹
- kcat/Km [3]: 53000 M⁻¹ s⁻¹
- Km [4]: 230 µM
- kcat [4]: 11.8 s⁻¹
- kcat/Km [4]: 51000 M⁻¹ s⁻¹
